From patent US20120207673A1

What was measured:
protein A [1] = molecular target: protein A (UniProt P38507); assay: phage ELISA on coated protein A; heat/cool assay, % of untreated sample (n = 2)
protein A [2] = molecular target: protein A (UniProt P38507); assay: phage ELISA on coated protein A; heat/cool assay, % of untreated sample
protein A [3] = molecular target: protein A (UniProt P38507); assay: phage ELISA on coated protein A; signal after 80 C 10 min then 4 C 10 min as % of the untreated sample (heat/cool assay)

Sequence of DP47 VH with CDR2 of HEL4 (VH): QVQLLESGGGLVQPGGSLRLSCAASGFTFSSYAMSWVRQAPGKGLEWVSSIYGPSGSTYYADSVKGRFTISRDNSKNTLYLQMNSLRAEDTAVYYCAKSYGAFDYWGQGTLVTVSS

| Retained binding to protein A (%) (protein A [1]) | Substance | Retained binding to protein A (protein A [2]) [%] | Retained binding to protein A (protein A [3]) [%] |
| --- | --- | --- | --- |
| 52 | DP47 VH SA_31/33_DD |  |  |
| 66 | DP47 VH SYA_31-33_DDD |  |  |
| 62 | DP47 VH SY_31/32_DD |  |  |
| 50 | DP47 VH SY_31/32_DE |  |  |
| 64 | DP47 VH YA_32/33_DD |  |  |
| 59 | DP47 VH YA_32/33_ED |  |  |
|  | DP47 VH with CDR2 of HEL4 |  | 4 |
|  | DP47 VH with CDR3 of HEL4 |  | 3 |

| Substance | Retained binding to protein A (%) (protein A [1]) | Retained binding to protein A (protein A [2]) [%] | Retained binding to protein A (protein A [3]) [%] |
| --- | --- | --- | --- |
| DP47 VH SYA31-33DED | 69 | 67 |  |
